Consider 72 sequences from the supplement of paper PMC10567573.

± gives the standard deviation.

This data set is described as follows: protein stability index of a GFP-peptide fusion (GPS, HEK-293T) (PSI 1-6); higher = more stable.
[1] abbreviates: treatment: DMSO, c terminus: a fixed tail appended.
Setting [2] is: treatment: MLN4924 1 uM, 8 h, c terminus: a fixed tail appended.
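Further: 24-mer peptide tiles fused after GFP, lentivirally expressed, FACS-sorted into six equal bins by GFP/DsRed ratio, decoded by Illumina sequencing, PSI is the read-weighted mean bin number.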

Take CMVGLLLIALLTWGYIRYSGQYRE [ATL3]: the protein stability index came to 2.95 ± 0.25 under setting [1] and 3.04 ± 0.36 under setting [2].

CSEGFLINEDLKTCSRVDYCLLSD [MATN2]: the protein stability index is, setting by setting: under setting [1], 2.99 ± 0.44; under setting [2], 3.28 ± 0.14.

As to CWLPLLAGLLPPVPAQKFSALTFL [SMOC2], the protein stability index came out at 3.54 ± 0.15 under setting [1] and 2.82 ± 0.53 under setting [2].

On to CYLSFPDSNSGCLGDTQFCFRFRQ [DENND6A], for which the protein stability index was determined as 2.25 ± 0.28 under setting [1] and 2.4 ± 0.63 under setting [2].

As for CYSSRPLLCWSVWWALSTCGYFQV [SLC19A2], the protein stability index runs as follows: under setting [1], 2.53 ± 0.19; under setting [2], 3.55 ± 0.31.

DAIRGKVGYTRGLHVWQITWAMRQ [SPSB1]: the protein stability index is 2.38 ± 0.54 under setting [1] and 2.36 ± 0.42 under setting [2].

Regarding DCMGIDRQHIPDTYLCERCQPRNL [KMT2E], the protein stability index under setting [1] stood at 3.13 ± 0.33 and the protein stability index under setting [2] worked out at 3.4 ± 0.4.

Regarding DDIRKGIVLLEELLPKGSKEEQRD [FIS1], the protein stability index is, setting by setting: under setting [1], 4.63 ± 0.43; under setting [2], 4.6 ± 0.27.

As for DDRKLAALLKFHTLDSYEDKQKLK [YJU2B], the protein stability index reads like this: under setting [1], 3.97 ± 0.28; under setting [2], 4.12 ± 0.27.

DEEEDFFLRGPSGPRFGPRNDKIK [VAMP4]: the protein stability index is, setting by setting: under setting [1], 4.53 ± 0.26; under setting [2], 4.62 ± 0.26.

DEKQCKQCANKVLQHMKAVQADQE [LRRC59]: the protein stability index reads like this: under setting [1], 4.78 ± 0.19; under setting [2], 4.63 ± 0.22.

Regarding DFDGKLKDIAGEFKEQLQALIPYV [ATL3], the protein stability index under setting [1] is 2.38 ± 0.47 and the protein stability index under setting [2] stood at 2.94 ± 0.31.

As to DFLLRAASFDVCESVDEAGGSGPA [RHOBTB2], the protein stability index runs as follows: under setting [1], 3.96 ± 0.16; under setting [2], 4.05 ± 0.29.

Sequence DFRTKYETELSLRQLVEADINGLR [KRT36] displayed a protein stability index under setting [1] of 3.15 ± 0.15 and a protein stability index under setting [2] of 3.38 ± 0.17.

On to DFSRCDMDGATLCNCALEELRLVF [ELF3], for which the protein stability index reads like this: under setting [1], 2.37 ± 0.15; under setting [2], 2.11 ± 0.32.

As to DGLVGMAIVGGMALGVAGLAGLIG [FIS1], the protein stability index stood at 2.33 ± 0.6 under setting [1] and 2.09 ± 0.5 under setting [2].

For the sequence DGYCMFNHVAVAARYAQQKHRIRR [HDAC6], the protein stability index runs as follows: under setting [1], 3.05 ± 0.42; under setting [2], 3.53 ± 0.2.

Take DHNEAMKPEEPPQNLLREKIMKLP [PCMTD1]: the protein stability index under setting [1] was 4.63 ± 0.32 and the protein stability index under setting [2] came to 4.66 ± 0.12.

Take DHSFSLELGSEVDITEGDRKPDYT [ATF4]: the protein stability index reads like this: under setting [1], 5.2 ± 0.29; under setting [2], 5.34 ± 0.18.

In turn, DHYAAIKKAWDDLKKYLEPRCPRM [FBXO3] had a protein stability index under setting [1] of 2.55 ± 0.22 and a protein stability index under setting [2] of 2.69 ± 0.064.

As to DIDKKHLVLLRDGRTLIGFLRSID [LSM1], the protein stability index by setting is: under setting [1], 2.3 ± 0.31; under setting [2], 2.25 ± 0.18.

For the sequence DIHGLRKVIDDTNITRLQLETEIE [KRT18], the protein stability index runs as follows: under setting [1], 4.28 ± 0.28; under setting [2], 4.16 ± 0.46.

On to DINREQLNDIFHLLKSHTNVLSVN [TPH1], for which the protein stability index is, setting by setting: under setting [1], 2.18 ± 0.17; under setting [2], 2.27 ± 0.23.

Turning to DIREEIRKVVQSLEQTAREILTLL [TSN], the protein stability index reads like this: under setting [1], 3.73 ± 0.94; under setting [2], 3.57 ± 0.3.

Sequence DITQEEYGEFYKSLTNDWEDHLAV [HSP90AB1] had a protein stability index under setting [1] of 3.85 ± 0.17 and a protein stability index under setting [2] of 4.01 ± 0.22.

As to DKGEKLLRCKLAAFYRLADLFGWS [ADD1], the protein stability index was determined as 2.59 ± 0.64 under setting [1] and 2.28 ± 0.24 under setting [2].

Regarding DKPGTTQIVQLTQQVDTNISVILP [DENND6A], the protein stability index was 3.48 ± 0.23 under setting [1] and 3.68 ± 0.38 under setting [2].

Consider DKVRALEEANADLEVKIRDWYQRQ [KRT16], for which the protein stability index reads like this: under setting [1], 4.01 ± 0.11; under setting [2], 4.04 ± 0.27.

Take DKYCPLLIKEGGMPLLRDIIKMAT [ZER1]: the protein stability index was 2.46 ± 0.3 under setting [1] and 2.22 ± 0.31 under setting [2].

Consider DLDPLELIALANRFCLPHLVALAE [RHOBTB1], for which the protein stability index by setting is: under setting [1], 2.5 ± 0.11; under setting [2], 2.14 ± 0.2.

For the sequence DLPVVQGSSSFSLKGYPSLMRSQS [TRIM29], the protein stability index by setting is: under setting [1], 3.03 ± 0.25; under setting [2], 3.3 ± 0.24.

For the sequence DLVTGGELFEDIVAREYYSEADAS [CAMK2B], the protein stability index was found to be 4.73 ± 0.2 under setting [1] and 4.52 ± 0.34 under setting [2].

Regarding DMKVNPIQGLASKWDYEKNEWKK [COX4I1], the protein stability index was 4.45 ± 0.27 (treatment: DMSO, c terminus: native) and 4.72 ± 0.24 (treatment: MLN4924 1 uM, 8 h, c terminus: native).

On to DMSYSIRHSISMPAMRNSPTFKSF [TPD52L1], for which the protein stability index runs as follows: under setting [1], 2.94 ± 0.24; under setting [2], 2.95 ± 0.32.

For the sequence DNEDSELNGDYGENIYPYEEDKDE [MIA2], the protein stability index is 5.37 ± 0.24 under setting [1] and 4.86 ± 1.1 under setting [2].

Turning to DNVAYARAFNTDHQTQLLYQASAM [RAD51], the protein stability index is, setting by setting: under setting [1], 3.12 ± 0.047; under setting [2], 3.27 ± 0.15.

Take DQIGSEIIEELGEQRDQLERTKSR [VTI1B]: the protein stability index reads like this: under setting [1], 5.53 ± 0.24; under setting [2], 5.47 ± 0.37.

For DQTALSLEECLRLLEATCPFGENA [NFE2L1], the protein stability index under setting [1] came to 3.31 ± 0.72 and the protein stability index under setting [2] is 3.8 ± 0.74.

Consider DRDGTINLSEFQHVISRSPDFASS [CIB1], for which the protein stability index runs as follows: under setting [1], 4.31 ± 0.28; under setting [2], 4.31 ± 0.24.

With DRLTTFQENQARTHVLSKEVQHLR [LRRC45], the protein stability index under setting [1] was 4.12 ± 0.13 and the protein stability index under setting [2] turned out to be 4.29 ± 0.16.

Turning to DRVGTIKSKVVGDRENGSDNLPSS [TPD52L2], the protein stability index came to 5.17 ± 0.29 under setting [1] and 5.17 ± 0.18 under setting [2].

As to DSFPEGPERLHAIKEQLIQEGLLD [HDAC6], the protein stability index under setting [1] came to 4.94 ± 0.49 and the protein stability index under setting [2] was determined as 4.76 ± 0.27.

Take DSHLGGNARGMGIRSPRPASVATW [CTBP1-DT]: the protein stability index by setting is: under setting [1], 3.56 ± 0.24; under setting [2], 3.63 ± 0.2.

Turning to DSLKPEQLDIEEEGRPGAATFHVG [TFE3], the protein stability index came out at 5.38 ± 0.093 under setting [1] and 4.96 ± 0.4 under setting [2].

DSMTSQAKPEALSSPKFREEAAFP [ELOA2]: the protein stability index reads like this: under setting [1], 4.9 ± 0.24; under setting [2], 4.89 ± 0.13.

Turning to DSSWYEPSAELVQTRMAVSLTAAE [ZNF232], the protein stability index by setting is: under setting [1], 4.26 ± 0.068; under setting [2], 4.37 ± 0.29.

The sequence DSVDAQNICHVWHMNVEALPEWIS [RNF180] showed a protein stability index under setting [1] of 2.44 ± 0.34 and a protein stability index under setting [2] of 2.62 ± 0.38.

Consider DTDKLLNSASDPSLKDGLSDSDSE [PSD2], for which the protein stability index by setting is: under setting [1], 5.45 ± 0.36; under setting [2], 5.57 ± 0.074.

DTLGLGKTRRKTSARDASPTPSTD [NCK2] displayed a protein stability index under setting [1] of 5.36 ± 0.25 and a protein stability index under setting [2] of 5.15 ± 0.34.

Take DTLQNDYFAIKQEVVTPDNMCMGR [ETS1]: the protein stability index reads like this: under setting [1], 3.65 ± 0.31; under setting [2], 4.05 ± 0.45.

Sequence DTLRRRLLAPEAGSHPQQTQKLEE [TOR1AIP2] came in with a protein stability index under setting [1] of 5.35 ± 0.3 and a protein stability index under setting [2] of 5.41 ± 0.15.

Turning to DTTEEVDHKPKLCRLAKGENGYGF [PDZK1], the protein stability index was 3.64 ± 0.32 under setting [1] and 3.79 ± 0.38 under setting [2].

With DTYNDMATLFFNPQESAILQLFHQ [CLCN6], the protein stability index worked out at 2.6 ± 0.34 under setting [1] and 2.43 ± 0.21 under setting [2].

DVFSENLLADVKGARAALNEIESR [STX11]: the protein stability index reads like this: under setting [1], 4.22 ± 0.22; under setting [2], 4.37 ± 0.12.

DVTGSVKSERRNLLEDDSDEEEDF [VAMP4] had a protein stability index under setting [1] of 5.57 ± 0.14 and a protein stability index under setting [2] of 5.66 ± 0.25.

Consider DYRGPDCRYLNFTKGEEISVYVKL [MIA2], for which the protein stability index is 2.45 ± 0.53 under setting [1] and 2.81 ± 0.95 under setting [2].

Sequence EAFALPDSLLVVLDMDEGTLSFIV [SPSB4] had a protein stability index under setting [1] of 2.42 ± 0.21 and a protein stability index under setting [2] of 2.53 ± 0.31.

Take EARSYLSEEMIAEFKAAFDMFDAD [TNNC2]: the protein stability index was 4.16 ± 0.46 under setting [1] and 4.15 ± 0.23 under setting [2].

As for ECIYIIEAAPRQCIELYFDEKYSI [NETO1], the protein stability index under setting [1] came to 3.08 ± 0.46 and the protein stability index under setting [2] turned out to be 2.95 ± 0.32.

Turning to ECPTCGHSYNVTQRRPRVLSCLHS [RNF208], the protein stability index worked out at 3.22 ± 0.17 under setting [1] and 3.45 ± 0.49 under setting [2].

Regarding EDQHKLYQQIKAGAYDFPSPEWDT [CAMK2B], the protein stability index is 4.79 ± 0.17 under setting [1] and 4.75 ± 0.12 under setting [2].

Regarding EEAEAGEEAVPEEEGPTVVLNPHP [CHGA], the protein stability index is, setting by setting: under setting [1], 5.59 ± 0.14; under setting [2], 5.44 ± 0.28.

As to EEAPELDEAELDYLMDVLVGTQAL [SERTAD1], the protein stability index reads like this: under setting [1], 4.05 ± 0.25; under setting [2], 4.22 ± 0.16.

Turning to EEGDEDDWASNKVMFKIGDLGHVT [WEE1], the protein stability index is, setting by setting: under setting [1], 4.1 ± 0.23; under setting [2], 4.39 ± 0.2.

As for EEKKLRRSQHARKETEFLRLKRTR [STK38L], the protein stability index is, setting by setting: under setting [1], 3.01 ± 0.16; under setting [2], 3.25 ± 0.27.

For EEKKPGELKRLVESRRQQILREFE [TRIM39], the protein stability index reads like this: under setting [1], 4.43 ± 0.55; under setting [2], 4.59 ± 0.22.

Regarding EEKQHLERLNKEYQEIFQQLQRSW [TRIM43], the protein stability index is 3.84 ± 0.23 under setting [1] and 3.77 ± 0.42 under setting [2].

Consider EELEAKRLQCPFEQELLRRQQRLN [FAM107A], for which the protein stability index came out at 4.59 ± 0.15 under setting [1] and 4.63 ± 0.21 under setting [2].

In turn, EERVETTVTSLKTKVGGTNPNGGS [TPD52L1] registered a protein stability index under setting [1] of 5.11 ± 0.28 and a protein stability index under setting [2] of 5.19 ± 0.21.

Consider EFFSANAISDQLLGAGSDLKDFTL [ADAMTSL2], for which the protein stability index is, setting by setting: under setting [1], 2.97 ± 0.26; under setting [2], 3.22 ± 0.42.

Turning to EFLPQGPVAMRVAKLAINQGMEVD [AUH], under setting [2], the protein stability index turned out to be 3.82 ± 0.18.

For EGEADHSGYAGELGFRAFSGSGNR [UFD1], the protein stability index by setting is: under setting [1], 4.63 ± 0.25; under setting [2], 4.69 ± 0.54.
